Test results published in publication PMC11988119.

Target: GnRH-AIF chimeric protein
Assay: co-IP; anti-AIF antibody (ab32516) on Protein A/G beads; nuclear fractions of Colo205 cells treated with GnRH-AIF (1 µM) or PBS for 24 h; overnight at 4 °C, washed with PBS; blots with anti-ENDOG and anti-AIFM1

fold increase of co-precipitated ENDOG, cells treated with GnRH-AIF against PBS control: 1.6 fold
B1: endonuclease G (enzyme)
chain: AELPPVPGGPRGPGELAKYGLPGLAQLKSRESYVLCYDPRTRGALWVVEQLRPERLRGDGDRRECDFREDDSVHAYHRATNADYRGSGFDRGHLAAAANHRWSQKAMDDTFYLSNVAPQVPHLNQNAWNNLEKYSRSLTRSYQNVYVCTGPLFLPRTEADGKSYVKYQVIGKNHVAVPTHFFKVLILEAAGGQIELRTYVMPNAPVDEAIPLERFLVPIESIERASGLLFVPNILARAGSLKAITAGSK
